Bridges are numbered along the chain shown (N, C = ends). Primed or numbered codes have the meaning given here. [ ]: non-standard residue; d: D form. Ygp(4) = Tyr with amino-capped PEG8 (O-(8x polyethylene glycol-amino)-tyrosine); Yn3(4) = Tyr with azide-capped PEG9 (O-(9x polyethylene glycol-azido)-tyrosine); Ygp″ = O-(8x polyethylene glycol-amino)-tyrosine; Yn3″ = O-(9x polyethylene glycol-azido)-tyrosine; PEG4′ = 4x polyethylene glycol; PEG9′ = 9x polyethylene glycol; hSer = N[C@@H](CCO)C(=O)O; Nle = CCCC[C@H](N)C(=O)O
T1: IL-2 receptor βγ complex (human, UniProt P14784 27-551; P31785 23-369)
T1 sequence (looked up) 1: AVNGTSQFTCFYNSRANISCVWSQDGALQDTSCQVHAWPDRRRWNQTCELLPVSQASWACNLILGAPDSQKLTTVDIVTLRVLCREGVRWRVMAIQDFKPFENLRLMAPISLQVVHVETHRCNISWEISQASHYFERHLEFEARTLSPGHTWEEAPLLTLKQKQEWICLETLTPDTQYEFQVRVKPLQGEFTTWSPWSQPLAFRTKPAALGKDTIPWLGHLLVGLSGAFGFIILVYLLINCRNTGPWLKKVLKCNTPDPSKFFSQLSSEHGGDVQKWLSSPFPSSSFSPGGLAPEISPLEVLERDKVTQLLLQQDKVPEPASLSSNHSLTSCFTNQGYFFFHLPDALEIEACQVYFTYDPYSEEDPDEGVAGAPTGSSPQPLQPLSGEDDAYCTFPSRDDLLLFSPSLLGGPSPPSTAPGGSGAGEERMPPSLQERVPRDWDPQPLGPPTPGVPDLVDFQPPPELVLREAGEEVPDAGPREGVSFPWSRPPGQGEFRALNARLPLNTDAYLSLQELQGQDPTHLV
T1 sequence (looked up) 2: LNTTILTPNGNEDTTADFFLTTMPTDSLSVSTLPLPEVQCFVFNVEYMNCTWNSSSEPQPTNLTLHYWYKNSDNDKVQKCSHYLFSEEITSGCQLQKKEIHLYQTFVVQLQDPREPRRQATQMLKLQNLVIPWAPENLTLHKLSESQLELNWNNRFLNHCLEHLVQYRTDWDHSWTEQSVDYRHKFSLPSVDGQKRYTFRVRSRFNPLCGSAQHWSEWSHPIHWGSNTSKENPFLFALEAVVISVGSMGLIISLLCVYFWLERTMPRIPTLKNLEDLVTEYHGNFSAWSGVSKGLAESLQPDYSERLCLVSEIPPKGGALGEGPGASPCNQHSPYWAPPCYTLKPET

B1: CMP-157 (ligand)
chain: PLGLAGAPTSSSTKKTQLQLEHLLEDLQ[Nle]ILNGINNYKNPKLTR[Nle]L[hSer][Yn3″]KF[Ygp″][Nle]PKKATELKHLQCLEEELKPLEEVL[hSer]LAQSKNFHLRPRDLISNINVIVLELKGSETTF[hSer]CEYADETATIVEFLNRWITFSQSIISTLT
modifications: linker N-25 via PEG4′
B2: CMP-160 (ligand)
chain: GPLGLAG[PEG9′]APTSSSTKKTQLQLEHLLLDLQ[Nle]ILEGINNYKNPKLTR[Nle]L[hSer][Yn3(4)]KF[Ygp(4)][Nle]PKKATELKHLQCLEEELKPLEEVL[hSer]LAQSKNFHLRPRDLISNINVIVLELKGSETTF[hSer]CEYADETATIVEFLNRWITFSQSIISTLT
modifications: bridge N-34; not fully specified (bridges); ends not checked
B3: CMP-155 (ligand)
chain: APTSSSTKKTQLQLEHLLLDLQ[Nle]ILNGIENYKNPKLTR[Nle]L[hSer][Yn3″]KF[Ygp″][Nle]PKKATELKHLQCLEEELKPLEEVL[hSer]LAQSKNFHLRPRDLISNINVIVLELKGSETTF[hSer]CEYADETATIVEFLNRWITFSQSIISTLT
modifications: linker N-29 via GPLGLAG‑PEG9
B4: CMP-152, MMP2 cleaved molecule (ligand)
chain: PLGLAGAPTSSSTKKTQLQLEHLLLDLQ[Nle]ILNGINNYKNPKLTR[Nle]L[hSer][Yn3″]KF[Ygp″][Nle]PKKATELKHLQCLEEELKPLEEVL[hSer]LAQSKNFHLRPRDLISNINVIVLELKGSETTF[hSer]CEYADETATIVEFLNRWITFSQSIISTLT
modifications: not fully specified (bridges); also: MMP2 cleaved, site not given here
B5: CMP-158, MMP2 cleaved molecule (ligand)
chain: APTSSSTKKTQLQLEHLLLDLE[Nle]ILNGINNYKNPKLTR[Nle]L[hSer][Yn3(4)]KF[Ygp(4)][Nle]PKKATELKHLQCLEEELKPLEEVL[hSer]LAQSKNFHLRPRDLISNINVIVLELKGSETTF[hSer]CEYADETATIVEFLNRWITFSQSIISTLT
modifications: not fully specified; ends and bridges not checked; also: MMP2 cleaved, cleavage site and linker fragments on N-terminus and Glu22 side chain not given here
B6: CMP-155, MMP2 cleaved molecule (ligand)
chain: APTSSSTKKTQLQLEHLLLDLQ[Nle]ILNGIENYKNPKLTR[Nle]L[hSer][Yn3″]KF[Ygp″][Nle]PKKATELKHLQCLEEELKPLEEVL[hSer]LAQSKNFHLRPRDLISNINVIVLELKGSETTF[hSer]CEYADETATIVEFLNRWITFSQSIISTLT
modifications: not fully specified; also: cleaved by MMP2, cleavage product not defined, N-terminal PEG9 link and Glu29 side-chain attachment of the cleavable peptide not defined
B7: CMP-152 (ligand)
chain: PLGLAGAPTSSSTKKTQLQLEHLLLDLQ[Nle]ILNGINNYKNPKLTR[Nle]L[hSer][Yn3″]KF[Ygp″][Nle]PKKATELKHLQCLEEELKPLEEVL[hSer]LAQSKNFHLRPRDLISNINVIVLELKGSETTF[hSer]CEYADETATIVEFLNRWITFSQSIISTLT
modifications: linker N-38 via PEG9‑glutaryl
B8: CMP-158 (ligand)
chain: GPLGLAG[PEG4′]APTSSSTKKTQLQLEHLLLDLE[Nle]ILNGINNYKNPKLTR[Nle]L[hSer][Yn3(4)]KF[Ygp(4)][Nle]PKKATELKHLQCLEEELKPLEEVL[hSer]LAQSKNFHLRPRDLISNINVIVLELKGSETTF[hSer]CEYADETATIVEFLNRWITFSQSIISTLT
modifications: bridge N-30; not fully specified (bridges); ends not checked
B9: CMP-154, MMP2 cleaved molecule (ligand)
chain: PLGLAGAPTSSSTKKTQLQLEHLLLDLQ[Nle]ILNGIENYKNPKLTR[Nle]L[hSer][Yn3″]KF[Ygp″][Nle]PKKATELKHLQCLEEELKPLEEVL[hSer]LAQSKNFHLRPRDLISNINVIVLELKGSETTF[hSer]CEYADETATIVEFLNRWITFSQSIISTLT
modifications: not fully specified (bridges); also: MMP2 cleaved, site not given here
B10: CMP-156 (ligand)
chain: APTSSSTKKTQLQLEHLLEDLQ[Nle]ILNGINNYKNPKLTR[Nle]L[hSer][Yn3″]KF[Ygp″][Nle]PKKATELKHLQCLEEELKPLEEVL[hSer]LAQSKNFHLRPRDLISNINVIVLELKGSETTF[hSer]CEYADETATIVEFLNRWITFSQSIISTLT
modifications: linker N-19 via GPLGLAG‑PEG4
B11: CMP-159, MMP2 cleaved molecule (ligand)
chain: PLGLAGAPTSSSTKKTQLQLEHLLLDLE[Nle]ILNGINNYKNPKLTR[Nle]L[hSer][Yn3(4)]KF[Ygp(4)][Nle]PKKATELKHLQCLEEELKPLEEVL[hSer]LAQSKNFHLRPRDLISNINVIVLELKGSETTF[hSer]CEYADETATIVEFLNRWITFSQSIISTLT
modifications: not fully specified (bridges); ends and bridges not checked; also: MMP2 cleaved, site not given here
B12: CMP-154 (ligand)
chain: PLGLAGAPTSSSTKKTQLQLEHLLLDLQ[Nle]ILNGIENYKNPKLTR[Nle]L[hSer][Yn3″]KF[Ygp″][Nle]PKKATELKHLQCLEEELKPLEEVL[hSer]LAQSKNFHLRPRDLISNINVIVLELKGSETTF[hSer]CEYADETATIVEFLNRWITFSQSIISTLT
modifications: linker N-35 via PEG9′
B13: CMP-159 (ligand)
chain: PLGLAGAPTSSSTKKTQLQLEHLLLDLE[Nle]ILNGINNYKNPKLTR[Nle]L[hSer][Yn3(4)]KF[Ygp(4)][Nle]PKKATELKHLQCLEEELKPLEEVL[hSer]LAQSKNFHLRPRDLISNINVIVLELKGSETTF[hSer]CEYADETATIVEFLNRWITFSQSIISTLT
modifications: bridge N-28; not fully specified (N-terminus, bridges); ends not checked
B14: CMP-160, MMP2 cleaved molecule (ligand)
chain: APTSSSTKKTQLQLEHLLLDLQ[Nle]ILEGINNYKNPKLTR[Nle]L[hSer][Yn3(4)]KF[Ygp(4)][Nle]PKKATELKHLQCLEEELKPLEEVL[hSer]LAQSKNFHLRPRDLISNINVIVLELKGSETTF[hSer]CEYADETATIVEFLNRWITFSQSIISTLT
modifications: not fully specified; ends and bridges not checked; also: MMP2 cleaved, cleavage site and linker fragments on N-terminus and Glu26 side chain not given here
B15: CMP-156, MMP2 cleaved molecule (ligand)
chain: APTSSSTKKTQLQLEHLLEDLQ[Nle]ILNGINNYKNPKLTR[Nle]L[hSer][Yn3″]KF[Ygp″][Nle]PKKATELKHLQCLEEELKPLEEVL[hSer]LAQSKNFHLRPRDLISNINVIVLELKGSETTF[hSer]CEYADETATIVEFLNRWITFSQSIISTLT
modifications: not fully specified; also: MMP2 cleaved, cleavage site and linker fragments on N-terminus and Glu19 side chain not given here
B16: CMP-161 (ligand)
chain: PLGLAGAPTSSSTKKTQLQLEHLLLDLQ[Nle]ILEGINNYKNPKLTR[Nle]L[hSer][Yn3(4)]KF[Ygp(4)][Nle]PKKATELKHLQCLEEELKPLEEVL[hSer]LAQSKNFHLRPRDLISNINVIVLELKGSETTF[hSer]CEYADETATIVEFLNRWITFSQSIISTLT
modifications: bridge N-32; not fully specified (N-terminus, bridges); ends not checked
B17: CMP-157, MMP2 cleaved molecule (ligand)
chain: PLGLAGAPTSSSTKKTQLQLEHLLEDLQ[Nle]ILNGINNYKNPKLTR[Nle]L[hSer][Yn3″]KF[Ygp″][Nle]PKKATELKHLQCLEEELKPLEEVL[hSer]LAQSKNFHLRPRDLISNINVIVLELKGSETTF[hSer]CEYADETATIVEFLNRWITFSQSIISTLT
modifications: not fully specified (bridges); also: MMP2 cleaved, site not given here

Target: T1, IL-2 receptor βγ complex
Assay: cell-based or functional assay

Compared with B1, B2 is lower in “Average EC50, pSTAT5 Assay (T cells)” value: 54.5 nM for the first, 27.8 nM for the second.

Going from B3 to B4, the “Average EC50, pSTAT5 Assay (T cells)” value falls from 10.7 nM to 2.95 nM.

First: B5
Second: B6
The “Average EC50, pSTAT5 Assay (T cells)” value of the first is lower: 1.95 nM for the first, 2.9 nM for the second.

First: B7
Second: B8
The “Average EC50, pSTAT5 Assay (T cells)” value of the first is lower: 16.1 nM for the first, 36.6 nM for the second.

Compared with B9, B10 is higher in “Average EC50, pSTAT5 Assay (T cells)” value: 4.2 nM for the first, 86 nM for the second.

Compared with B11, B12 is higher in “Average EC50, pSTAT5 Assay (T cells)” value: 2.27 nM for the first, 24.7 nM for the second.

First: B13
Second: B14
The “Average EC50, pSTAT5 Assay (T cells)” value of the first is higher: 35.5 nM for the first, 2.21 nM for the second.

Compared with B15, B16 is higher in “Average EC50, pSTAT5 Assay (T cells)” value: 21.3 nM for the first, 29.4 nM for the second.

For B17, the “Average EC50, pSTAT5 Assay (T cells)” value was 10 nM.

Source: US20240376170A1 (BRIGHT PEAK THERAPEUTICS, published 2024)
